Assay results reported in US11523990B2, “Non-covalent, self-organzing hydrogel matrix for biotechnological applications” (DENOVOMATRIX GMBH, priority 2012, dated 2022).
Square brackets hold non-standard residues; d marks the D form. Ends that are not written are not given here.

Columns and labels:
Format in all cases: physicochemical
[1] = High-throughput centrifuge analysis of mechanical properties of the hydrogels (surface deformation, metal bead penetration); settings: for Deformation speed: 50 μl 1×PBS, 45° centrifuge; for Penetration speed: 275 μm metal beads
Description: (§1) ATIII is a heparin-binding peptide known from the literature. All peptides are connected to a four-armed, maleimide functionalized 10-kDa-polyethylene glycol (starPEG). The hydrogel formation was tested in a 50 μI mixture, which contains 5 mM 14-kDa-heparin and 5 mM (2.5 mM) peptide-starPEG conjugate in phosphate buffer solution (1×PBS, pH 7.4). The deformation and penetration speed was analyzed through centrifuging the hydrogel in a 45° table centrifuge with 275 μm metal beads added to the surface. The deformation of the surface and the penetration of the metal beads were monitored in dependence on the applied force.
A comparative high-throughput analysis was performed regarding the mechanical properties of the hydrogels. In order to provide a fast high-throughput method for comparing small amounts of hydrogel, a tabletop centrifuge (5424R, Eppendorf, Hamburg, Germany) was used. For this purpose, 50 μl of the hydrogel were formed by mixing the peptide-starPEG-conjugates and 14-kDa-heparin in phosphate buffer (1×PBS, pH 7.4) to a final concentration of 5 mM (once 2.5 mM for KA7-starPEG). The mixture was incubated in 0.2 ml reaction vessels overnight. The deformation of the hydrogel surface was determined in reference to the 45° centrifuge rotor and the penetration of 275 μm metal beads in dependence on the force that has to be produced by the centrifuge. All experiments were repeated three times.
Hereby FIGS. 5A and B show a deformation of the surface of the 50 μl hydrogel in a 0.2 ml reaction tube, more specifically FIG. 5A below the speed required for deforming the surface, and FIG. 5B at the speed required for deforming the surface. FIG. 5C is a schematic representation of the penetration of a small spheres through 50 μl hydrogel in a 0.2 ml reaction tube depending on the force exerted by the 45° centrifuge.
The hydrogels were formed by mixing peptide-starPEG-conjugate and 14-kDa-heparin at 5 mM final concentration in 50 μl phosphate buffer (1×PBS). The analysis was performed by centrifuging the hydrogels in a 45° tabletop centrifuge with 275 μm metal beads on the gel surface. The deformation of the surface and the penetration of the spheres were recorded in dependence on the exerted force.

[2] = Stability of formed hydrogels against different solvents; settings: 24° C., at least three days
Description: In order to test the strength of the interaction between the peptide motif and the 14-kDa-heparin the formed hydrogels were tested with regard to different solvents. […] For this the peptide-starPEG-conjugates were mixed with 14 kDa-heparin in 50 μl in physiological phosphate buffer solution (1×PBS) to a final concentration of respectively 5 mM. Each solvent, i.e., physiological phosphate buffer solution (1×PBS), Milli-0-water, 1 M hydrochloric acid (HCl) 1 M sodium hydroxide solution (NaOH), saturated sodium chloride solution (NaCl), dimethyl sulfoxide (DMSO), ethanol and cell culture medium with 2% fetal bovine serum (FBS) were respectively added as 200 μl supernatant to the hydrogel. The hydrogel was incubated at a room temperature of 24° C. and the supernatants where exchanged every day for at least three days. All experiments were performed three times. Under none of the tested conditions the KA7-hydrogel could be destroyed. […] 2,2,2-trifuourethanlol (TFE) is known to destroy any type of secondary structures.

[3] = Hydrogel formation in different solvents; settings: 5 mM conjugate + 5 mM 14-kDa-heparin
Description: Three respective different cases were tested in the hydrogel-formation stability test. […] The hydrogels were formed by mixing the final concentrations of respectively 5 mM peptide-starPEG-conjugate and 5 mM 14-kDa-heparin in 50 μl physiological phosphate buffer solution (1×PBS), Milli-Q-water or cell culture medium with 2% fetal bovine serum (FBS). The stability of the hydrogels was tested with the same solvent in which it was formed in 200 μl supernatant. The hydrogels were incubated at room temperature (24° C.), the supernatants were changed every day for at least three days in a row and the result after at least 3 days analyzed.

[4] = Hydrogel formation of peptide-starPEG conjugates with 14-kDa-heparin; settings: peptide coupled to 10-kDa starPEG; 5 mM 14-kDa-heparin + 5 mM (2.5 mM) conjugate, 50 μl 1×PBS pH 7.4
Description: Following is the description of the production of the hydrogel networks. Hereby 14-kDa-heparin (25 mM, 2.5 mM) and peptide-starPEG conjugates (6.25 mM, 3.125 mM) were dissolved in physiologic phosphate buffer solution (1×PBS) water or cell culture medium with 2% fetal bovine serum (FBS). These solutions were dissolved in a ratio of 1:4 heparin:peptide-starPEG-conjugate by obtaining […] or 5 mM 14-kDa-heparin and 2.5 mM or 5 mM peptide-starPEG. The ligand/mol ratio was 2:1, 1:1 and 1:5 relative to the mol ratio of 14-kDa-heparin and the peptide-starPEG-conjugate. The mixtures were incubated within a time frame of one hour to overnight at […]. The gelation time spanned from present up to several hours depending on the applied peptide motif.
as §1
In addition to the peptide motif, a tryptophan was labeled with a one letter code W, for UV detection and purification and a cysteine, marked with the one letter code C, bound to the N-terminal end of the peptide with two glycine. By applying the Michael-addition-chemistry, the cysteine was coupled to the maleimide-functionalized 10-kDa-starPEG. […] This is the largest library of peptide-polymer-conjugates, for which each of the oligosaccharide dependent hydrogel formation was analyzed. To analyze the formation of hydrogels, all peptide-starPEG-conjugates were each mixed with 14-kDa-heparin in 50 μI phosphate buffer (1×PBS) to a final concentration of 5 mM. […]

[5] = Rheological gelation measurement (MCR 302, cone-plate); settings: for Loss Factor at te / Storage modulus G′ at te: 1 mM KA7-RGDSP-starPEG + 1 mM 5DexS or 0.01 mM 500DexS; for Storage moduli G′: 2 mM KA7-RGDSP-starPEG + 2 mM oligosaccharide, after 110 min of gelation
Description: The oligosaccharides were purchased as given in Table 9 and weighed out as required prior each experiment. Oligosaccharides and peptide-starPEG conjugates were dissolved in PBS (oligosaccharides at five-fold and peptide-starPEG at 1.25-fold of the final concentration) and mixed thoroughly. The samples were applied directly onto the measuring system. First, 80% of the final sample volume was provided by the peptide-starPEG solution. Second, the oligosaccharide solution was added to complete to 100% of sample volume.
The Modular Compact Rheometer MCR 302 (Anton Paar) was used with temperature control unit (P-PTD200+H-PTD200, Anton Paar) and cone-plate measuring system (CP20-0.3 and INSET I-PP20/SS, Anton Paar) for assessment of the mechanical properties of the hydrogels of different composition. The gelation measurement was performed at 20° C. with 1% oscillatory shear strain and a frequency of 1 Hz every 5 min for 2 hours. The data was analyzed with Excel (Excel 2013, Microsoft).
The following experiments studied the mechanical properties of hydrogels formed of different components. FIG. 14 summarizes the chosen parameters and measurement values. The storage modulus G′ and loss modulus G″ are calculated from the complex modulus G, which is recorded by the oscillating rheometer. The loss factor tan δ is further calculated by G″ divided by G′.

[6] = 5 mM peptide-starPEG + 5 mM 14-kDa-heparin
[7] = supernatant 1xPBS, 5 mM conjugate + 5 mM heparin gel
[8] = supernatant Cell culture medium with 2% FBS
[9] = supernatant Saturated NaCl solution
[10] = 2.5 mM peptide-starPEG + 5 mM 14-kDa-heparin
[11] = Cell culture medium with 2% FBS
[12] = PBS, 50 μl, result after at least 3 days
[13] = te 120 min, sulfate sodium salt
[14] = 1 mM KA7-RGDSP-starPEG(40 kDa) + 1 mM oligosaccharide, te 120 min
[15] = 2 mM KA7-RGDSP-starPEG(10 kDa) + 2 mM oligosaccharide, te 110 min (5DexS), 120 min (Hep)
[16] = 2 mM KA7-starPEG + 2 mM 5DexS or 0.02 mM 500DexS, te 120 min, sulfate sodium salt
[17] = 2 mM KA7-starPEG(10 kDa) + 2 mM oligosaccharide, te 120 min
[18] = 1.5 mM KA7-starPEG(10 kD) + 3 mM cyclodextrin sulfate, te 120 min

Substance: CWGGKAFAKLAARLYRKA (Human) [ATIII, reference compound]
- Deformation speed [1, 6]: gel shrank

Substance: CWGGKAKAKAKAKAKAKA [KA7]
- Stability of hydrogel against supernatant ([2]; supernatant 1M HCl): Stable
- Stability of hydrogel against supernatant ([2]; supernatant 1M NaOH): Stable
- Stability of hydrogel against supernatant [2, 7]: Stable
- Stability of hydrogel against supernatant [2, 8]: Stable
- Stability of hydrogel against supernatant ([2]; supernatant DMSO): Stable
- Stability of hydrogel against supernatant ([2]; supernatant Ethanol): Stable
- Stability of hydrogel against supernatant [2, 9]: Stable
- Stability of hydrogel against supernatant ([2]; supernatant Water): Stable
- Deformation speed [1, 10]: 43998 +/- 3139 m/s^2
- Penetration speed [1, 10]: 72780 +/- 6926 m/s^2
- Deformation speed [1, 6]: >148317 m/s^2
- Penetration speed [1, 6]: 138919 +/- 16275 m/s^2
- Hydrogel formation in solvent [3, 11]: formed
- Hydrogel formation in solvent [3, 12]: formed
- Hydrogel formation in solvent ([3]; water (Milli-Q)): formed

Substance: CWGGKAKAKAKaKAKAKA (CWGGKAKAKAK[dA]KAKAKA) [KA7-1a]
- Hydrogel formation with heparin [4]: doesn't form a hydrogel with heparin

Substance: CWGGKaKaKaKaKaKaKa (CWGGK[dA]K[dA]K[dA]K[dA]K[dA]K[dA]K[dA]) [KdA7]
- Hydrogel formation with heparin [4]: neither formation of a hydrogel

Substance: CWGGRARARARARA [RA5]
- Deformation speed [1, 6]: >687 m/s^2
- Penetration speed [1, 6]: >687 m/s^2

Substance: CWGGRARARARARARARA [RA7]
- Stability of hydrogel against supernatant ([2]; supernatant 1M HCl): Stable; hydrogel was
- Stability of hydrogel against supernatant ([2]; supernatant 1M NaOH): Stable
- Stability of hydrogel against supernatant [2, 7]: Stable; the surface
- Stability of hydrogel against supernatant [2, 8]: Stable
- Stability of hydrogel against supernatant ([2]; supernatant DMSO): Stable
- Stability of hydrogel against supernatant ([2]; supernatant Ethanol): Stable
- Stability of hydrogel against supernatant [2, 9]: Not stable; hydrogel
- Stability of hydrogel against supernatant ([2]; supernatant Water): Stable
- Deformation speed [1, 6]: 1069 +/- 579 m/s^2
- Penetration speed [1, 6]: 1952 +/- 491 m/s^2
- Hydrogel formation in solvent [3, 11]: formed
- Hydrogel formation in solvent [3, 12]: formed
- Hydrogel formation in solvent ([3]; water (Milli-Q)): formed

Substance: CWGGkAkAkAkAkAkAkA (CWGG[dK]A[dK]A[dK]A[dK]A[dK]A[dK]A[dK]A) [dKA7]
- Hydrogel formation with heparin [4]: neither formation of a hydrogel

Substance: Dextran sulfate sodium salt [Peptide 5DexS]
- Loss Factor at te [5, 13]: 0.00681
- Storage modulus G′ at te [5, 13]: 2,295 Pa
- Loss Factor at time point [5, 14]: 0.0105
- Storage moduli G′ [5]: 14.5 kPa
- Loss Factor at time point [5, 15]: 0.00611
- Storage modulus G′ at time point [5, 15]: 14,486 Pa
- Loss Factor at time point [5, 16]: 0.132
- Storage modulus G′ at time point [5, 16]: 76,977 Pa
- Loss Factor at time point [5, 17]: 0.132
- Storage modulus G′ at time point [5, 17]: 76,977 Pa

Substance: Dextran sulfate sodium salt [Peptide 500DexS]
- Loss Factor at te [5, 13]: 0.0307
- Storage modulus G′ at te [5, 13]: 1,658 Pa
- Loss Factor at time point [5, 16]: 0.0887
- Storage modulus G′ at time point [5, 16]: 34,694 Pa

Substance: Heparin [reference compound]
- Loss Factor at time point [5, 14]: 0.0486
- Storage modulus G′ at time point [5, 14]: 811 Pa
- Storage moduli G′ [5]: 12.1 kPa
- Loss Factor at time point [5, 15]: 0.0193
- Storage modulus G′ at time point [5, 15]: 12,104 Pa
- Loss Factor at time point [5, 17]: 0.0131
- Storage modulus G′ at time point [5, 17]: 1,849 Pa
- Factor by which storage modulus G′ is lower than for 5DexS gels ([5]; 2 mM KA7-starPEG, after 120 min of gelation): 40

Substance: α-cyclodextrin sulfated sodium salt
- Loss Factor at time point [5, 18]: 0.0641
- Storage modulus G′ at time point [5, 18]: 30,561 Pa

Substance: β-cyclodextrin sulfated sodium salt
- Loss Factor at time point [5, 18]: 0.062
- Storage modulus G′ at time point [5, 18]: 33,169 Pa

Substance: γ-cyclodextrin sulfated sodium salt
- Loss Factor at time point [5, 18]: 0.0355
- Storage modulus G′ at time point [5, 18]: 30,749 Pa
